{
  "source": "paper PMC9052802",
  "biological_target": "RopC-U (thiazoline-containing product of the reaction of RopC with MicD-F) (UniProt P03051)",
  "test": "SEC",
  "data": [
    {"substance": "RopC-U (thiazoline-containing product of the reaction of RopC with MicD-F) (from UniProt P03051 1-63) (natural protein)", "values": [
      {"measurement": "stoichiometry N", "result": 2}
    ]}
  ]
}
